Data set [1] has as its target PPARγ (mouse, UniProt P37238 1-505). The experiment in a line: EMSA; Beyotime GS009 EMSA kit; 1 uL protein + 2 uL DNA, 20 min at room temperature; 4% non-denaturing PAGE; buffer, salt and pH not stated. Conditions: protein: recombinant; blunt. (In general: In EMSA bound probe runs differently from free probe, usually more slowly.)
The target of data set [2] is p65 (NF-kB) (UniProt Q04207 1-549). The data set is described as above. Conditions: protein: recombinant; tags: His (pET-21b(+)); blunt.
Chain of p65 (NF-kB) (Q04207 whole entry): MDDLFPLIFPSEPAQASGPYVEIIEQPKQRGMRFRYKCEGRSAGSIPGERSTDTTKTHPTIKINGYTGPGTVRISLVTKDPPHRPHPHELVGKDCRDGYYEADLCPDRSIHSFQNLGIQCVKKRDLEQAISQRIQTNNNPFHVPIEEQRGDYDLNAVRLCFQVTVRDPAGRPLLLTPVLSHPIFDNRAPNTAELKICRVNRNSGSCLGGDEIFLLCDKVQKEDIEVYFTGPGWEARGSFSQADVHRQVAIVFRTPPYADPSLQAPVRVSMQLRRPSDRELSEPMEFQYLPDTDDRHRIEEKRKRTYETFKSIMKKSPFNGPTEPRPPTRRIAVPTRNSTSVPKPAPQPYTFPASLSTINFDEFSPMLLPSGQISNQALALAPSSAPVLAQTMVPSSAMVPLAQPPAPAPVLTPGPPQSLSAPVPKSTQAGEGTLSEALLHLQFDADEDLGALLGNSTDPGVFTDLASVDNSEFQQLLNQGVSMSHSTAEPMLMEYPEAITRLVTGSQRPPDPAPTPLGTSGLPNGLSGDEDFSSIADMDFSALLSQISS

Here are results for one molecule from paper PMC11749100, “Blockade of Arf1-mediated lipid metabolism in cancers promotes tumor infiltration of cytotoxic T cells via the LPE-PPARγ-NF-κB-CCL5 pathway”.

B1: CCL5 promoter probe (dsDNA)
DNA 1: GTCTTTTGTGGAAACTCCCCAAG
DNA 2: CTTGGGGAGTTTCCACAAAAGAC
Consider B1, for which the binding result is recorded as “no binding” in data set [1] and “binds” in data set [2].
